# Test results taken from US20040175799.
# T1: Myoglobin, horse skeletal muscle, P68082
# T1 chain: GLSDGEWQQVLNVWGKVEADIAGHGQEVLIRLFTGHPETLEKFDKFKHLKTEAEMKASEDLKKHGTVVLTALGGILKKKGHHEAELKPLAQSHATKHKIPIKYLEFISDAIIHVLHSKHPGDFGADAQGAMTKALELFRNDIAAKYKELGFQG
# T2: β-Lactoglobulin, bovine milk, P02754
# T2 chain: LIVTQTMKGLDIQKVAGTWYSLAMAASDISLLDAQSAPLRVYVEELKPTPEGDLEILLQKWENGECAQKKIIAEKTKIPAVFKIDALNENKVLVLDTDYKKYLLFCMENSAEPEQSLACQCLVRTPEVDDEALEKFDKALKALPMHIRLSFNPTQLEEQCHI
# T3: α-Lactoalbumin, bovine milk, P00711
# T3 chain: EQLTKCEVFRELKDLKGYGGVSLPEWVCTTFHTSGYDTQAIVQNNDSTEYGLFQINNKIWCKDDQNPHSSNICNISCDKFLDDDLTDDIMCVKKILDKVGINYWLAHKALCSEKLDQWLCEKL
# T4: Ovalbumin, chichen egg, P01012
# T4 chain: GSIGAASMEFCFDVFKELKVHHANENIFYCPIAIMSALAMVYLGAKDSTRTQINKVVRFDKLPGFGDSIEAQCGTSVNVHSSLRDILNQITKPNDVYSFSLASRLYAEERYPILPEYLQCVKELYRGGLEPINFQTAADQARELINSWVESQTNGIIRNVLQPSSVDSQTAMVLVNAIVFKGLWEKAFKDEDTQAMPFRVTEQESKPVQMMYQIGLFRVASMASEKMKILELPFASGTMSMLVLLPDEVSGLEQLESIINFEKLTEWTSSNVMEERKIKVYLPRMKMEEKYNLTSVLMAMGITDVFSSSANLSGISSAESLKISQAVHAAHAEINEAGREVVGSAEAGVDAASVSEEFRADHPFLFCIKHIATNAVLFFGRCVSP
# T5: RNase A, bovine pancreas, P61823
# T5 chain: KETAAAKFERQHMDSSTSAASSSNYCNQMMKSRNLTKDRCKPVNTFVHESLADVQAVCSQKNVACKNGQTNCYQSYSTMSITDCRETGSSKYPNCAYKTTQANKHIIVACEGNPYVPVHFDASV
# T6: β-Casein, bovine milk, P02666
# T6 chain: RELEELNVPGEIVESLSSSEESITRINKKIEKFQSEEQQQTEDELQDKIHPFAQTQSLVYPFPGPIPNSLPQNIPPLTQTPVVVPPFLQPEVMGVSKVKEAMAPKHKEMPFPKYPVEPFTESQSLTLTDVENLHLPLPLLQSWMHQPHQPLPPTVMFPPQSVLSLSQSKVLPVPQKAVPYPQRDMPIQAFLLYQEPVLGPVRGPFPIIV
# Tests used:
# [1] = target: Gelatin, Type B, bovine skin
# [2] = target: Actin, bovine muscle, P68138
# [3] = target: T1, Myoglobin, horse skeletal muscle, P68082
# [4] = target: whey protein
# [5] = target: soybean protein
# [6] = target: T2, β-Lactoglobulin, bovine milk, P02754
# [7] = target: T3, α-Lactoalbumin, bovine milk, P00711
# [8] = target: milk caseinate
# [9] = target: Gluten, wheat
# [10] = target: Gliadin, what (wheat)
# [11] = target: Soy protein isolate
# [12] = target: Aprotinin, bovine lung, P00974
# [13] = target: Zein, corn
# [14] = target: α-Casein, bovine milk
# [15] = target: albumen protein
# [16] = target: α-Chymotrypsinogen A, bovine pancreas, P00766
# [17] = target: T4, Ovalbumin, chichen egg, P01012
# [18] = target: T5, RNase A, bovine pancreas, P61823
# [19] = target: Collagen, Type I, bovine Achilles tendon, P02453
# [20] = target: Muscle acetone powder, chicken breast
# [21] = target: T6, β-Casein, bovine milk, P02666
# [22] = target: Bovine serum albumin, bovine, P02769
# Sequence of Bovine serum albumin, bovine, P02769 (P02769 25-607): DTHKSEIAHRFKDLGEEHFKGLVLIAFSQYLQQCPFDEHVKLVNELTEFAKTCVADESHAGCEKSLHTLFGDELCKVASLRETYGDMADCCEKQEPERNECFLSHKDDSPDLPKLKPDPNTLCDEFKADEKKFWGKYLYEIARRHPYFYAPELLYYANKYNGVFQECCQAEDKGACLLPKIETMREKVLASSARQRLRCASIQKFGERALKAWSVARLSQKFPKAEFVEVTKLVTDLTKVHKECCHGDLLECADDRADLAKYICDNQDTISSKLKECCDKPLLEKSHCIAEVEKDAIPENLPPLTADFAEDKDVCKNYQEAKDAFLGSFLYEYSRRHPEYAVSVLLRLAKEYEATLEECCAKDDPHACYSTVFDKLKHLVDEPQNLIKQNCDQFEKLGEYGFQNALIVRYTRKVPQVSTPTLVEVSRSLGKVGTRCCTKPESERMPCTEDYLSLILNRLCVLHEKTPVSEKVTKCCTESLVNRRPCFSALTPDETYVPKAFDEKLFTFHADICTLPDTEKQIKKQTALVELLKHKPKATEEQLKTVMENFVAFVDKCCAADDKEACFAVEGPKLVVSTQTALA
# Sequence of Collagen, Type I, bovine Achilles tendon, P02453 (P02453 162-1217, chain 1 of 2): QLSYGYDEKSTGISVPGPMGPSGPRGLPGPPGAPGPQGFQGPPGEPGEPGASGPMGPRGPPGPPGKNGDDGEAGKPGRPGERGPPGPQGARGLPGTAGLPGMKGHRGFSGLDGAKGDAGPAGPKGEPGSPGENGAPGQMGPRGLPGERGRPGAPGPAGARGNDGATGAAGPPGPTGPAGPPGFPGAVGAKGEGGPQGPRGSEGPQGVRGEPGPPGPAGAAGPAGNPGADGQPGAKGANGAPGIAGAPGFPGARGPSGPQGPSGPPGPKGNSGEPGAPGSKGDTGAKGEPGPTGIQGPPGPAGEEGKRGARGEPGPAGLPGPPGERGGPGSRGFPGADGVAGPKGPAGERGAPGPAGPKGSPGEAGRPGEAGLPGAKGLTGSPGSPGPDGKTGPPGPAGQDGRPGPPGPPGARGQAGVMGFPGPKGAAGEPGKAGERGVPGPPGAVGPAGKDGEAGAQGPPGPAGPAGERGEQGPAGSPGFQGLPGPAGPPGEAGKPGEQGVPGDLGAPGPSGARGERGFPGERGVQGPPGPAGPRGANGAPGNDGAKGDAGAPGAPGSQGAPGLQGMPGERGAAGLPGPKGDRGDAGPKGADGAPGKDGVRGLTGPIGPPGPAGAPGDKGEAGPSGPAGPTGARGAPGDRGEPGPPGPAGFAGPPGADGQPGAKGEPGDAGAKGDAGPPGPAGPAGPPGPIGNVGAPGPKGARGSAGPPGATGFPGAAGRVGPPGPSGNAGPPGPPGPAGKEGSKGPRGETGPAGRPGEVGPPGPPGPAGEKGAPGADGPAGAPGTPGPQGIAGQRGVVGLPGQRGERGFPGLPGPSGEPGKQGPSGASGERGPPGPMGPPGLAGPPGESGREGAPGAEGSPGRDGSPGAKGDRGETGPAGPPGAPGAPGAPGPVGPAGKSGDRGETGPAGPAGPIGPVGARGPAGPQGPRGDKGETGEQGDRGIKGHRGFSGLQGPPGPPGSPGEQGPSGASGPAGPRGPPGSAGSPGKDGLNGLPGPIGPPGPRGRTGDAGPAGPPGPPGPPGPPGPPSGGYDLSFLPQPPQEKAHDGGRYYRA
# Sequence of Collagen, Type I, bovine Achilles tendon, P02453 (P02453 other isoform, or with tags, fused parts or gaps, chain 2 of 2): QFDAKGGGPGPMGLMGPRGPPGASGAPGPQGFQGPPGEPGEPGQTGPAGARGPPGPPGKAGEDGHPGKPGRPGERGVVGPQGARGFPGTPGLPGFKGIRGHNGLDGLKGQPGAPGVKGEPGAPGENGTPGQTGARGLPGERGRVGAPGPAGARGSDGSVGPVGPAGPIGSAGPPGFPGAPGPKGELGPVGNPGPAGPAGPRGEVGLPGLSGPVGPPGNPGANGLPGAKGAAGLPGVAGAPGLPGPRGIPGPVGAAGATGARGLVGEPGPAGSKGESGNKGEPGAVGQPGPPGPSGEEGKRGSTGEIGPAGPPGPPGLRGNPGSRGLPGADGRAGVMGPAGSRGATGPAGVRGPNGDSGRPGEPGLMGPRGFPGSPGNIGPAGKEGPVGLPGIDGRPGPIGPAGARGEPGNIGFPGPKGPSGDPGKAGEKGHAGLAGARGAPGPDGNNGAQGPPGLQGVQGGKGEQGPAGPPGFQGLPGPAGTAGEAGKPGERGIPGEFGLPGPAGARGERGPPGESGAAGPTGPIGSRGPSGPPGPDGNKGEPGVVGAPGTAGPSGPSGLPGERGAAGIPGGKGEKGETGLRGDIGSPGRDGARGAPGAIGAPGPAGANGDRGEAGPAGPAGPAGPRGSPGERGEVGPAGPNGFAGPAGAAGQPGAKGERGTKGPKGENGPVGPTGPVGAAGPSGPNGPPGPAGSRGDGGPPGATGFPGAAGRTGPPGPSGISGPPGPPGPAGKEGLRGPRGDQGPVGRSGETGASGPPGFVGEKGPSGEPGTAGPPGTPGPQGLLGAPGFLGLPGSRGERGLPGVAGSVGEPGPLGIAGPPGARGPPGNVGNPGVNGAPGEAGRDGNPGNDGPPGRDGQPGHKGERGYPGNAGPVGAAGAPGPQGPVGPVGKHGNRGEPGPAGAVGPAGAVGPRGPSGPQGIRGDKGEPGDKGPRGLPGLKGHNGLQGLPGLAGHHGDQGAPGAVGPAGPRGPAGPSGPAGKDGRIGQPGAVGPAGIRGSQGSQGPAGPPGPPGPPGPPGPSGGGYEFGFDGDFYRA
protein,measurement,setting,value
protein-deamidating enzyme purified from Chryseobacterium sp. No. 9670 (protein) LASVIPDVATLNSLFNQIKNQSCGTSTASSPCITFRYPVDGCYARAHKMRQILMNNGYDCEKQFVYGNLKASTGTCCVAWSYHVAILVSYKNASGVTEKRIIDPSLFSSGPVTDTAWRNACVNTSCGSASVSSYANTAGNVYYRSPSNSYLYDNNLINTNCVLTKFSLLSGCSPSPAPDVSSCGF,Ammonia releasing rate,[1],0.696 µmol/min/mg
same,Ammonia releasing rate,[2],0.45 µmol/min/mg
same,Ammonia releasing rate,[3],0.014 µmol/min/mg
same,deamidation ratio,[4],23% in whey protein
same,deamidation ratio,[5],20% in soybean protein
same,Ammonia releasing rate,[6],0.728 µmol/min/mg
same,Ammonia releasing rate,[7],0.836 µmol/min/mg
same,deamidation ratio,[8],60% in caseinate
same,Ammonia releasing rate,[9],7.2 µmol/min/mg
same,deamidation ratio,[9],74% in wheat gluten
same,Ammonia releasing rate,[10],5.47 µmol/min/mg
same,Ammonia releasing rate,[11],1.17 µmol/min/mg
same,Ammonia releasing rate,[12],0.224 µmol/min/mg
same,Ammonia releasing rate,[13],0.655 µmol/min/mg
same,Ammonia releasing rate,[14],19.1 µmol/min/mg
same,deamidation ratio,[15],7% in albumen protein
same,Ammonia releasing rate,[16],0.65 µmol/min/mg
same,Ammonia releasing rate,[17],0.005 µmol/min/mg
same,Ammonia releasing rate,[18],2.91 µmol/min/mg
same,Ammonia releasing rate,[19],0.177 µmol/min/mg
same,Ammonia releasing rate,[20],0.21 µmol/min/mg
same,Ammonia releasing rate,[21],18.1 µmol/min/mg
same,Ammonia releasing rate,[22],0.009 µmol/min/mg
